Source: paper PMC6016246, “Cytokinin Signaling in Mycobacterium tuberculosis” (mBio, 2018)

How the values were obtained:
Rv0078 R48M = molecular target: T1, Rv0078 R48M (Mycobacterium tuberculosis, UniProt O53623 1-201, R48M); assay: EMSA; […], room temperature 30 min; […], buffer not stated; conditions: protein: recombinant; chain copies: 2; label: 5'-IRDye700 on S21
T1 sequence: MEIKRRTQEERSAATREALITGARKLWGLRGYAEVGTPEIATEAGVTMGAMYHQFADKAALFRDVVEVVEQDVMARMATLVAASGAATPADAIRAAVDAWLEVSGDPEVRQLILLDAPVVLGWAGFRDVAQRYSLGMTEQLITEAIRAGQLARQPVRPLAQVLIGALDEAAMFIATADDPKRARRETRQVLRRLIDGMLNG

Rv0078 = molecular target: T2, Rv0078 (Mycobacterium tuberculosis, UniProt O53623 1-201); assay: as above; conditions: protein: recombinant; tags: C-terminal His6; chain copies: 4; label: IRDye700
T2 sequence: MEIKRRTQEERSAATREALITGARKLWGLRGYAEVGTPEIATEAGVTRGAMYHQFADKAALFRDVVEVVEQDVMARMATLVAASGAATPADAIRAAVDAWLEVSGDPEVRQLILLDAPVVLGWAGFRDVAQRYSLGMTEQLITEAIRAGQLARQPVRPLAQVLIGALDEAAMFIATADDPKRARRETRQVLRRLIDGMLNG

Binder | binding result (Rv0078 R48M) | binding result (Rv0078)
+19/-14 (WT) (dsDNA) DNA 1: GTACATTTACAAGCAGACTGCCGGTAACTTACCCCAGACCAGGGCAC DNA 2: GTGCCCTGGTCTGG DNA 3: GGTAAGTTACCGGCAGTCTGCTTGTAAATGTAC | no binding | –
probe S1 (central dimer G-to-A) (dsDNA) DNA 1: GTACATTTACAAGTAGACTACCGGTAACTTACC DNA 2: GGTAAGTTACCGGTAGTCTACTTGTAAATGTAC | – | no binding
